Results as given in US20240201167A1 (ALBERT EINSTEIN COLLEGE OF MEDICINE, published 2024).

T1: human B7-1 N82E on cells (Homo sapiens, UniProt P33681 35-280)
T1 construct: C-terminally fused to mCherry; also called ASN82 GLU
T1 chain: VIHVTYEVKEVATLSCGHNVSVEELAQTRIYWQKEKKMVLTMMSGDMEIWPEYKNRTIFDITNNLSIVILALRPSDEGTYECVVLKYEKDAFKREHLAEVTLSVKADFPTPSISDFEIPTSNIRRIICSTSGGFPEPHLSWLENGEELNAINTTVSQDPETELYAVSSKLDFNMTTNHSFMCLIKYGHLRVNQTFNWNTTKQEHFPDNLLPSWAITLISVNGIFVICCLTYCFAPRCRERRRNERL

T2: human B7-1 K120D on cells (Homo sapiens, UniProt P33681 35-280)
T2 construct: mCherry-tagged point mutant; also called LYS120 ASP
T2 chain: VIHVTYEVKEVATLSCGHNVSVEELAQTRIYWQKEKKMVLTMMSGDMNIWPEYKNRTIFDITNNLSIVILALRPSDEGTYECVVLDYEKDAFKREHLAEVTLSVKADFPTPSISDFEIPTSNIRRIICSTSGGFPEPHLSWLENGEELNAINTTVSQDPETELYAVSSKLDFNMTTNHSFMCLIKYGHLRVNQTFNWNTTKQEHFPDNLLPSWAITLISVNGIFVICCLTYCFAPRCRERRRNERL

T3: human B7-1 K127D on cells (Homo sapiens, UniProt P33681 35-280)
T3 construct: mCherry-tagged point mutant; also called LYS127 ASP
T3 chain: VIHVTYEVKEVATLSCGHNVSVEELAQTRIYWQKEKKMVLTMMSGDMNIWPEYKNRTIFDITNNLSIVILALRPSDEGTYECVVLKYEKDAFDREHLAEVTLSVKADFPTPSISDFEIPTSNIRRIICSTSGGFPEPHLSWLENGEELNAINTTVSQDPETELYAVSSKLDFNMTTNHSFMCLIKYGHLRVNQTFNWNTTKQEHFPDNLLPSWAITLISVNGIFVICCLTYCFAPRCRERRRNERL

T4: human B7-1 K139D on cells (Homo sapiens, UniProt P33681 35-280)
T4 construct: mCherry-tagged point mutant; also called LYS139ASP; LYS139 ASP
T4 chain: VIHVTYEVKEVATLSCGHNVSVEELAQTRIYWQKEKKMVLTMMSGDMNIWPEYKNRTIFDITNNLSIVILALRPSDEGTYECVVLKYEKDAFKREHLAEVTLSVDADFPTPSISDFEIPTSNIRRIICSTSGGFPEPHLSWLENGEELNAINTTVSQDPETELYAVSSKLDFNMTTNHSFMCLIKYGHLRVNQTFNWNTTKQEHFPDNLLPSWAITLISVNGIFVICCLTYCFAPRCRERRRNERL

T5: human B7-1 R63D on cells (Homo sapiens, UniProt P33681 35-280)
T5 construct: mCherry-tagged point mutant; also called ARG63 ASP
T5 chain: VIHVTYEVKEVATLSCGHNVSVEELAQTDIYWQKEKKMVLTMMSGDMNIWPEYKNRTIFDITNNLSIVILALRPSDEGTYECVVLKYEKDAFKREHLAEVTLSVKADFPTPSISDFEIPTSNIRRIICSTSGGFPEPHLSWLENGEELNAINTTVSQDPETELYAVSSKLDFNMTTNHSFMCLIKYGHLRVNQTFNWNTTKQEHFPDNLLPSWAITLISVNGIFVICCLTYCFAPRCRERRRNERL

T6: human B7-1 (CD80), full length, expressed on HEK 293 cells (Homo sapiens, UniProt P33681 35-280)
T6 construct: also called hB7-1; B7-1-mCherry
T6 sequence: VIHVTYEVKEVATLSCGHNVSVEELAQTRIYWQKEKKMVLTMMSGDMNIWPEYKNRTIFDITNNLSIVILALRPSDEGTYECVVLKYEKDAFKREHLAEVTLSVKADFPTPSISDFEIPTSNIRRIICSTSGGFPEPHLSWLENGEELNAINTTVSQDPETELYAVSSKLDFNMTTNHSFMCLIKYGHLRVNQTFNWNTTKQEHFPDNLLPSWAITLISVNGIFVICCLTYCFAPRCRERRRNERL

T7: B7-1-hIgG1-biotin (human, UniProt P33681 35-233, biotin on the AVI tag (BirA))
T7 construct: Loaded on streptavidin beads; the paragraph gives residues only; also called B7-1-Fc-biotin; hB7-1 (residues 35-233) hIgG1-His10-AVI; not shown: C-terminal 10xHis and AVI tagged hIgG1 Fc domain
T7 chain: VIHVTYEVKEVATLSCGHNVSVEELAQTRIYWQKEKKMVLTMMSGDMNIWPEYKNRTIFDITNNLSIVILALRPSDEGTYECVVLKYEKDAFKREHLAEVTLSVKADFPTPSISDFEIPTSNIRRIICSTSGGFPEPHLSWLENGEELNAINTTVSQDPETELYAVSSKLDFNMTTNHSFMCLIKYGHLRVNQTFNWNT

B1: human p75 neurotrophin receptor, full length, expressed on HEK 293 cells (receptor)
chain: KEACPTGLYTHSGECCKACNLGEGVAQPCGANQTVCEPCLDSVTFSDVVSATEPCKPCTECVGLQSMSAPCVEADDAVCRCAYGYYQDETTGRCEACRVCEAGSGLVFSCQDKQNTVCEECPDGTYSDEANHVDPCLPCTVCEDTERQLRECTRWADAECEEIPGRWITRSTPPEGSDSTAPSTQEPEAPPEQDLIASTVAGVVTTVMGSSQPVVTRGTTDNLIPVYCSILAAVVVGLVAYIAFKRWNSCKQNKQGANSRPVNQTPPPEGEKLHSDSGISVDSQSLHDQQPHTQTASGQALKGDGGLYSSLPPAKREEVEKLLNGSAGDTWRHLAGELGYQPEHIDSFTHEACPVRALLASWATQDSATLDALLAALRRIQRADLVESLCSESTATSPV
notes: Full-length human p75 with a cytosolic fluorescent tag (GFP); also called p75NTR; NGFR
B2: p75NTR-mIgG2a (Fc fusion)
chain: KEACPTGLYTHSGECCKACNLGEGVAQPCGANQTVCEPCLDSVTFSDVVSATEPCKPCTECVGLQSMSAPCVEADDAVCRCAYGYYQDETTGRCEACRVCEAGSGLVFSCQDKQNTVCEECPDGTYSDEANHVDPCLPCTVCEDTERQLRECTRWADAECEEIPGRWITRSTPPEGSDSTAPSTQEPEAPPEQDLIASTVAGVVTTVMGSSQPVVTRGTTDN
notes: Full-length ectodomain; also called p75-mIgG2A; recombinant p75 mIgG2a; not shown: C-terminal mIgG2a-His10 Fc domain

What was measured:
[1] = molecular target: T1, human B7-1 N82E on cells; assay: cell-cell binding, flow cytometry; percent of the wild-type pair
[2] = molecular target: T2, human B7-1 K120D on cells; assay: as above
[3] = molecular target: T3, human B7-1 K127D on cells; assay: as above
[4] = molecular target: T4, human B7-1 K139D on cells; assay: as above
[5] = molecular target: T5, human B7-1 R63D on cells; assay: as above
[6] = molecular target: human B7-1 (CD80), full length, expressed on HEK 293 cells (Homo sapiens) (UniProt P33681); assay: as above
[7] = molecular target: T6, human B7-1 (CD80), full length, …; assay: as above
[8] = molecular target: T8, protein tyrosine phosphatase receptor type F expressed on cells (human, UniProt P10586 30-1907); assay: cell-cell screen, flow cytometry
T8 construct: whole, on cells; also called PTPRF; PTPRF mCherry
Description: (§1) As illustrated, cells were transfected with expression cassettes expressing labeled receptors or labeled ligands, receptor-expressing cells were mixed with ligand-expressing cells and cell-to-cell binding was monitored by detecting the labels associated with the receptor and the ligand. […] Binding was detected using an anti-mIgG2A ab and flow cytometry. The binding curves were fit and the Bmax, EC50, and hill coefficient were calculated using the equation Y=Bmax*Xh/(Kdh+Xh).

[9] = molecular target: B1; assay: cell-cell screen, flow cytometry
Description: as §1

[10] = molecular target: T6, human B7-1 (CD80), full length, …; assay: cell-cell screen, flow cytometry
Description: as §1

[11] = molecular target: B2; assay: Fc fusion on cells expressing chimera B7-1-GFP, flow cytometry
Description: (§2) The arrow identifies the swapped exons. […] Binding was assessed using an anti mIgG2a-647 labeled antibody and flow cytometry.

[12] = molecular target: T9, mouse CTLA-4-mIgG2a (mouse, UniProt P09793 36-161); assay: as above
T9 construct: not shown: mIgG2a Fc
T9 sequence (P09793 36-161): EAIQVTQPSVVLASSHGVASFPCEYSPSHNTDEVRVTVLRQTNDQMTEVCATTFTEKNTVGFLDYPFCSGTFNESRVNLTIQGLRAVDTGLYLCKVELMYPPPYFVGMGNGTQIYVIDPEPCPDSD
Description: as §2

[13] = molecular target: T7, B7-1-hIgG1-biotin; assay: Fc fusions titrated on streptavidin beads coated with B7-1-hIgG1-biotin, flow cytometry
Description: (§3) Binding was detected by flow cytometry on a SONY Spectral Analyzer (SA 3800). Binding curves were fit using the equation Y=Bmax*Xh/(Kdh+Xh).

[14] = molecular target: T7, B7-1-hIgG1-biotin; assay: p75-mIgG2A titrated on streptavidin beads coated with B7-1-hIgG1-biotin; anti-mIgG2A, flow cytometry
Description: as §3

percent binding [1] [%] | percent binding [2] [%] | percent binding [3] [%] | percent binding [4] [%] | percent binding [5] [%] | Molecule | other results
25 | 12 | 26 | 26 | 8 | human p75NTR mutant printed ARG166H on cells (from UniProt P08138 29-427) (receptor) | percent binding [6]: 66%
25 | 20 | 26 | 21 | 30 | B1 | percent binding [7]: 100%; binding result [8]: binds
– | – | – | – | – | ICOSL expressed on cells (ligand, human, UniProt O75144 19-302, looked up, whole, on cells) DTQEKEVRAMVGSDVELSCACPEGSRFDLNDVYVYWQTSESKTVVTYHIPQNSSLENVDSRYRNRALMSPAGMLRGDFSLRLFNVTPQDEQKFHCLVLSQSLGFQEVLSVEVTLHVAANFSVPVVSAPHSPSQDELTFTCTSINGYPRPNVYWINKTDNSLLDQALQNDTVFLNMRGLYDVVSVLRIARTPSVNIGCCIENVLLQQNLTVGSQTGNDIGERDKITENPVSTGEKNAATWSILAVLCLLVVVAVAIGWVCRDRCLQHSYAGAWAVSPETELTGHV | binding result [9]: no binding
– | – | – | – | – | HVEM expressed on cells (receptor, human, UniProt Q92956 39-283, looked up, whole, on cells) LPSCKEDEYPVGSECCPKCSPGYRVKEACGELTGTVCEPCPPGTYIAHLNGLSKCLQCQMCDPAMGLRASRNCSRTENAVCGCSPGHFCIVQDGDHCAACRAYATSSPGQRVQKGGTESQDTLCQNCPPGTFSPNGTLEECQHQTKCSWLVTKAGAGTSSSHWVWWFLSGSLVIVIVCSTVGLIICVKRRKPRGDVVKVIVSVQRKRQEAEGEATVIEALQAPPDVTTVAVEETIPSFTGRSPNH | binding result [10]: no binding
– | – | – | – | – | chimeric human-mouse B7-1 protein expressed on HEK 293 cells (ligand, also called human-mouse chimera B7-1-GFP; h:mB7-1) VIHVTKEVKEVATLSCGHNVSVEELAQTRIYWQKEKKMVLTMMSGDMNIWPEYKNRTIFDITNNLSIVILALRPSDEGTYECVVLKYEKDAFKREHLAEVTLSVKADFSTPNITESGNPSADTKRITCFASGGFPKPRFSWLENGRELPGINTTISQDPESELYTISSQLDFNTTRNHTIKCLIKYGDAHVSEDFTWEKPPEDPPDSKNTLVLFGAGFGAVITVVVIVVIIKCFCKHRSCFRRNEASRETNNSLTFGPEEALAEQTVFL | binding result [11]: binds; binding result [12]: binds
– | – | – | – | – | B2 | fold higher EC50 than B7-1:CTLA-4 [13]: ~30 fold; EC50 [14]: 16 nM
